Measurements: publication PMC3606566, “Structure of Pseudomonas aeruginosa inosine 5′-monophosphate dehydrogenase” (Acta Crystallographica Section F: Structural Biology and …, 2013)

Target: the molecule itself
Test: crystal structure; apo PaIMPDH, sitting-drop vapour diffusion, 0.2 M sodium acetate pH 4.5, 40% MPD, room temperature; space group I4, one subunit in the asymmetric unit, tetramer by the crystallographic fourfold axis; 2.25 Å

B1: Pseudomonas aeruginosa inosine 5′-monophosphate dehydrogenase (enzyme, UniProt Q9HXM5 1-489, looked up)
chain: MLRISQEALTFDDVLLIPGYSEVLPKDVSLKTRLTRGIELNIPLVSAAMDTVTEARLAIAMAQEGGIGIIHKNMGIEQQAAEVRKVKKHETAIVRDPVTVTPSTKIIELLQMAREYGFSGFPVVEQGELVGIVTGRDLRVKPNAGDTVAAIMTPKDKLVTAREGTPLEEMKAKLYENRIEKMLVVDENFYLRGLVTFRDIEKAKTYPLASKDEQGRLRVGAAVGTGADTGERVAALVAAGVDVVVVDTAHGHSKGVIERVRWVKQTFPDVQVIGGNIATAEAAKALAEAGADAVKVGIGPGSICTTRIVAGVGVPQISAIANVAAALEGTGVPLIADGGIRFSGDLAKAMVAGAYCVMMGSMFAGTEEAPGEIELFQGRSYKSYRGMGSLGAMSGSQGSSDRYFQDASAGAEKLVPEGIEGRVPYKGALSAIVHQLMGGLRAAMGYTGSADIQQMRTQPQFVRITGAGMAESHVHDVQITKEAPNYRVG
notes: Inosine 5′-monophosphate dehydrogenase of Pseudomonas aeruginosa, full-length gene PA3770, amino acids 1-489, synthesised and codon-optimised for E. coli; Modified pET15b: N-terminal His tag followed by a TEV protease cleavage site; The His tag was still present at size-exclusion chromatography; The model holds only residues 1-91, 205-370 and 426-467; also called PaIMPDH; IMPDH; not shown: His …
- stoichiometry N: 4
